From PMC8241838 (2021)
Values belong to the binder of their own block, whether it stands above or below them.

Key:
Test in all cases: FACS
[1] = target: α6β1 integrin on Expi293F cells, α6 R157A (human, UniProt P05556 21-798)
[2] = target: α6β1 integrin on Expi293F cells, α6 E221A (human, UniProt P05556 21-798)
[3] = target: α6β1 integrin on Expi293F cells, α6 E219A (human, UniProt P05556 21-798)
[4] = target: α6β1 integrin on Expi293F cells, α6 D205A (human, UniProt P05556 21-798)
[5] = target: α6β1 integrin on Expi293F cells, α6 D153A (human, UniProt P05556 21-798)
α6β1 integrin on Expi293F cells, α6 D153A, sequence (chain, as listed by the source D153A, chain 1 of 2): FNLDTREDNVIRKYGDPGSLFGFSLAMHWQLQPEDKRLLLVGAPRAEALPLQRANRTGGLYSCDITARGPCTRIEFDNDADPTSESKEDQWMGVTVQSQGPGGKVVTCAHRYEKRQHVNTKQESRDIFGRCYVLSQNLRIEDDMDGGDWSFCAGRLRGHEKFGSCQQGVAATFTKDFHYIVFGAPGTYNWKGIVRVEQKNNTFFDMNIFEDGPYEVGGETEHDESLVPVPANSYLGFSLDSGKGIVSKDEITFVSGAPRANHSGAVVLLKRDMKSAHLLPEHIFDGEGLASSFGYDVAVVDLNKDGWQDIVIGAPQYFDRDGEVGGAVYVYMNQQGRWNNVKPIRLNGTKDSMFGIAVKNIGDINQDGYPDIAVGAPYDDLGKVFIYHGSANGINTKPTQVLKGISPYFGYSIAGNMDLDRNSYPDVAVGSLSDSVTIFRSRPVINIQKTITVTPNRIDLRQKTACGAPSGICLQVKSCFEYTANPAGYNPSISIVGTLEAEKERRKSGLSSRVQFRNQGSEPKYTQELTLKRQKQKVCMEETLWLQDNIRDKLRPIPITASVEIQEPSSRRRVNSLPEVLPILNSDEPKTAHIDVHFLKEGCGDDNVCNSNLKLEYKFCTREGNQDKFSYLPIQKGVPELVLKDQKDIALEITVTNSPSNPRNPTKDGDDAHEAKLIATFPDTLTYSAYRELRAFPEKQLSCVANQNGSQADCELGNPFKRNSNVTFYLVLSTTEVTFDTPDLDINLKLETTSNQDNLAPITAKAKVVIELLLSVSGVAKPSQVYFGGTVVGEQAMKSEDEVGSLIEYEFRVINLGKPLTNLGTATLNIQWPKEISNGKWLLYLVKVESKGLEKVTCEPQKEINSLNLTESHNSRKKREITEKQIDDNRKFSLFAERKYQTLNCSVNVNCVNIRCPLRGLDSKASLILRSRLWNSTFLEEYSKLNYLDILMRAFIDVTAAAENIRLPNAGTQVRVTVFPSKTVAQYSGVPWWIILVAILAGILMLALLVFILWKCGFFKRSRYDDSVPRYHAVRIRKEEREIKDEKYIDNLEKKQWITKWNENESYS
α6β1 integrin on Expi293F cells, α6 D153A, sequence (P05556 21-798, chain 2 of 2): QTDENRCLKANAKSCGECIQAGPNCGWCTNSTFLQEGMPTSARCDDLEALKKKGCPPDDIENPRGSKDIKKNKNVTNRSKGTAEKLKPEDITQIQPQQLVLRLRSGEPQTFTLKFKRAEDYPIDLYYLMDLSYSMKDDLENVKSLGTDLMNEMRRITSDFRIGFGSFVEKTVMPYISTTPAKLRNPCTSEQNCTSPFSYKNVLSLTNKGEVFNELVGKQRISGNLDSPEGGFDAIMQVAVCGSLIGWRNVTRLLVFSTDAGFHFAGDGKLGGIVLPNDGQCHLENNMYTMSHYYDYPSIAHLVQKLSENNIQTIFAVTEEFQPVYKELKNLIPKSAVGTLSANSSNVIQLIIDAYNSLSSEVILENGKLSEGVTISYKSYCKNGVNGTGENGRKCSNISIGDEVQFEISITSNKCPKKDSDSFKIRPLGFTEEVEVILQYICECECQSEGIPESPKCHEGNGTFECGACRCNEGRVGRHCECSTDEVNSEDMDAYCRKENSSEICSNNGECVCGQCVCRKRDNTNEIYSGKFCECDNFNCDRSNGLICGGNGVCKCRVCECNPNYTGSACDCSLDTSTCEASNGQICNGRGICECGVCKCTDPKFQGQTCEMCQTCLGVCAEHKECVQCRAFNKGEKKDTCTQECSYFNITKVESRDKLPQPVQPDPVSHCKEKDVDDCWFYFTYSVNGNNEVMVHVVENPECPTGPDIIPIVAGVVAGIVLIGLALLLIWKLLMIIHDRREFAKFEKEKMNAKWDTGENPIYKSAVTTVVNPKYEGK

[6] = target: human α6β1 integrin transiently expressed on Expi293F cells, wild type (human, UniProt P05556 21-798)
human α6β1 integrin transiently expressed on Expi293F cells, wild type, sequence (chain, as listed by the source, chain 1 of 2): as the sequence (chain, as listed by the source D153A, chain 1 of 2) above, with A153D counted along it
human α6β1 integrin transiently expressed on Expi293F cells, wild type, sequence (P05556 21-798, chain 2 of 2): as the sequence (P05556 21-798, chain 2 of 2) above

[7] = target: α6β1 integrin on Expi293F cells, α6 X1-ΔC (human, UniProt P05556 21-798)
α6β1 integrin on Expi293F cells, α6 X1-ΔC, sequence (P05556 whole entry, looked up, stated change not applied): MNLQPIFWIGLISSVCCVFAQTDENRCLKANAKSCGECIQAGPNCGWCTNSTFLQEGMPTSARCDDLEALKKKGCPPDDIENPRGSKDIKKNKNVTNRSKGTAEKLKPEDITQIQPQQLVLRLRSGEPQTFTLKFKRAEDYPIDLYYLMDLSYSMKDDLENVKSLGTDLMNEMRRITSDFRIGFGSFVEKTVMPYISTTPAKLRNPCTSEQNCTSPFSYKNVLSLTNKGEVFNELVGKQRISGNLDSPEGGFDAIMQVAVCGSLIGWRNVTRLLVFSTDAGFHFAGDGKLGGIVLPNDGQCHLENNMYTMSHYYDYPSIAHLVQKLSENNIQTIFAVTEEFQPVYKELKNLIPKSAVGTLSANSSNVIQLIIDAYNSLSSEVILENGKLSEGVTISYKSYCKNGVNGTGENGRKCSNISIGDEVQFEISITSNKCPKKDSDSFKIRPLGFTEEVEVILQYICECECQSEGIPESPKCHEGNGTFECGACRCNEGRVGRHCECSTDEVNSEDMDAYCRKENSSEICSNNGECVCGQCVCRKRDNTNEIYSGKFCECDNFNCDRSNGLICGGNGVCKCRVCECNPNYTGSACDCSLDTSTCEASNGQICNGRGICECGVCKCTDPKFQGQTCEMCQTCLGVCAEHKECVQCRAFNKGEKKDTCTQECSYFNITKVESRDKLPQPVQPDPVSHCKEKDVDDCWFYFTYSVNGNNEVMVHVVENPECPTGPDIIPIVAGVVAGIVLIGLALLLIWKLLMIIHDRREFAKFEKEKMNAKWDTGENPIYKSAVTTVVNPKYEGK

α6β1 integrin on Expi293F cells, α6 E219A, sequence (chain, as listed by the source E219A, chain 1 of 2): as the sequence (chain, as listed by the source D153A, chain 1 of 2) above, with A153D, E219A counted along it
α6β1 integrin on Expi293F cells, α6 E219A, sequence (P05556 21-798, chain 2 of 2): as the sequence (P05556 21-798, chain 2 of 2) above
α6β1 integrin on Expi293F cells, α6 E221A, sequence (chain, as listed by the source E221A, chain 1 of 2): as the sequence (chain, as listed by the source D153A, chain 1 of 2) above, with A153D, E221A counted along it
α6β1 integrin on Expi293F cells, α6 E221A, sequence (P05556 21-798, chain 2 of 2): as the sequence (P05556 21-798, chain 2 of 2) above
α6β1 integrin on Expi293F cells, α6 R157A, sequence (chain, as listed by the source R157A, chain 1 of 2): as the sequence (chain, as listed by the source D153A, chain 1 of 2) above, with A153D, R157A counted along it
α6β1 integrin on Expi293F cells, α6 R157A, sequence (P05556 21-798, chain 2 of 2): as the sequence (P05556 21-798, chain 2 of 2) above
α6β1 integrin on Expi293F cells, α6 D205A, sequence (chain, as listed by the source D205A, chain 1 of 2): as the sequence (chain, as listed by the source D153A, chain 1 of 2) above, with A153D, D205A counted along it
α6β1 integrin on Expi293F cells, α6 D205A, sequence (P05556 21-798, chain 2 of 2): as the sequence (P05556 21-798, chain 2 of 2) above

Kd [1]: 28.8 nM
Kd [2]: 32.5 nM
Kd [3]: 134 nM
Kd [4]: 60.1 nM
Kd [5]: 45.2 nM
B1: trimeric fusion protein PA-sfGFP-tLM511 (complex)
chain 1: ENVERWQGQYEGLRGQDLGQAVLDAGHSVSTLEKTLPQLLAKLSILENRGVHNASLALSASIGRVRELIAQARGAASKVKVPMKFNGRSGVQLRTPRDLADLAAYTALKFYLQGPEPEPGQGTEDRFVMYMGSRQATGDYMGVSLRDKKVHWVYQLGEAGPAVLSIDEDIGEQFAAVSLDRTLQFGHMSVTVERQMIQETKGDTVAPGAEGLLNLRPDDFVFYVGGYPSTFTPPPLLRFPGYRGCIEMDTLNEEVVSLYNFERTFQLDTAVDRPCARSKSTGDPWLTDGSYLDGTGFARISFDSQISTTKRFEQELRLVSYSGVLFFLKQQSQFLCLAVQEGSLVLLYDFGAGLKKAVPLQPPPPLTSASKAIQVFLLGGSRKRVLVRVERATVYSVEQDNDLELADAYYLGGVPPDQLPPSLRRLFPTGGSVRGCVKGIKALGKYVDLKRLNTTGVSAGCTADLLVGRAMTFHGHGFLRLALSNVAPLTGNVYSGFGFHSAQDSALLYYRASPDGLCQVSLQQGRVSLQLLRTEVKTQAGFADGAPHYVAFYSNATGVWLYVDDQLQQMKPHRGPPPELQPQPEGPPRLLLGGLPESGTIYNFSGCISNVFVQRLLGPQRVFDLQQNLGSVNVSTGCAPALQAQTPGLGPRGLQATARKASRRSRQPARHPA
chain 2: not shown
chain 3: DTVDLNKLNEIEGTLNKAKDEMKVSDLDRKVSDLENEAKKQEAAIMDYNRDIEEIMKDIRNLEDIRKTLPSGCFNTPSIEKP
modifications: Mn2+; A cytoplasmic form assumed

Kd [6]: 12.5 nM
B2: trimeric fusion protein PA-sfGFP-tLM511 (complex)
chain 1: B1 chain 1
chain 2: not shown
chain 3: B1 chain 3
modifications: assayed with 0.5 mM Mn2+; X1 variant without the 39-residue X2 insert (P23229 displayed = X1X2A; mature 988 = 1050 gives offset 62 after X2); A/B cytoplasmic form not given, A taken; alpha6 may be furin-cleaved; signal peptides removed

Kd [7]: 127 nM
B3: trimeric fusion protein PA-sfGFP-tLM511 (complex)
chain 1: B1 chain 1
chain 2: not shown
chain 3: B1 chain 3
